Assay results published in patent publication US20100120063A1, “GPCR Arrestin Assays” (DISCOVERX CORPORATION, priority 2008, published 2010).
Where two headings read alike, the source gives them in different places. Blank lines part the entries; values can stand above or below the substance they belong to.

What was measured:
Assay in all cases: cell-based or functional assay
[1] = target: OPRM1-PK (opiod receptor mu-1 fused to PK) (E. coli) (UniProt P35372); parameters: EC50, arrestin-EA recruitment to OPRM1-PK (EFC) (M (unit not given)): unit not given beside the values
OPRD1-PK fusion protein [2] = target: OPRD1-PK fusion protein; parameters: EC50, arrestin-EA recruitment to OPRD1-PK (EFC) (M (unit not given)): unit not given beside the values
PROKR2, not fused = PROKR2, not fused (UniProt Q8NFJ6); parameters: EC50, arrestin-EA recruitment to OPRM1-PK (EFC), cells headed 'OPRM1 + PRC' (M (unit not given)): unit not given beside the values
Chain of PROKR2, not fused (Q8NFJ6 whole entry, the tested form may be a part): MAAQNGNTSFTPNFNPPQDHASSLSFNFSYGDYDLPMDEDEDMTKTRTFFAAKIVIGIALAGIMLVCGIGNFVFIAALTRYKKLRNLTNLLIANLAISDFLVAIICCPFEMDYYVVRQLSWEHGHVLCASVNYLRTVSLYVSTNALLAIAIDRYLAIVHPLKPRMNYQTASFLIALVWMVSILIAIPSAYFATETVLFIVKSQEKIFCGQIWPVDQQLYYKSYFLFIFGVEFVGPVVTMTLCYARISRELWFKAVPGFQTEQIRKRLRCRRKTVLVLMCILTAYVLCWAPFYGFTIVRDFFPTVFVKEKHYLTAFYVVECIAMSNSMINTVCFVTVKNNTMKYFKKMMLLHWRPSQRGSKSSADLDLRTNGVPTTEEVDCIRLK

[3] = target: CRTH2-PK2 (G Protein-coupled receptor 44 fused to PK2) (E. coli) (UniProt Q9Y5Y4); parameters: EC50 of prostaglandin for arrestin-EA recruitment, EFC (M (unit not given)): unit not given beside the values
[4] = target: MC3R-PK2 (melanocortin 3 receptor fused to PK2) (E. coli) (UniProt P41968)
[5] = target: SSTR4 with the EGS linker and PK (UniProt P31391)
Chain of SSTR4 with the EGS linker and PK (P31391 other isoform, or with tags, fused parts or gaps): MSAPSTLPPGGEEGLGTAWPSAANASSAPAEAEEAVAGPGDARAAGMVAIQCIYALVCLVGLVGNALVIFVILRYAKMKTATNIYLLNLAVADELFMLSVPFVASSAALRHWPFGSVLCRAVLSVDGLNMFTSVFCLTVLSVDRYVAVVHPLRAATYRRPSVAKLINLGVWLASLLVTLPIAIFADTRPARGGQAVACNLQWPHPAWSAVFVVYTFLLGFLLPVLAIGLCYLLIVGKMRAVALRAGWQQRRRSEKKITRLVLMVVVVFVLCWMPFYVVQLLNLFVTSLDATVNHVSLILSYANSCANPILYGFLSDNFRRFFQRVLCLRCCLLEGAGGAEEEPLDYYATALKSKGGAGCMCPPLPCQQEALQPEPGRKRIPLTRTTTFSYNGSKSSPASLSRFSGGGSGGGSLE

[6] = target: CHRM3 with the EGS linker and PK (UniProt P20309)
[7] = target: CHRM2-PK2 (cholinergic receptor, muscarinic 2, fused to PK2) (E. coli) (UniProt P08172)
[8] = target: CRHR2-PK1 (corticotropin releasing hormone receptor 2 fused to PK1) (E. coli) (UniProt Q13324)
[9] = target: CRTH2-PK1 (G Protein-coupled receptor 44 fused to PK1) (E. coli) (UniProt Q9Y5Y4)
[10] = target: HRH3 with the EGS linker and PK (UniProt Q9Y5N1)
Chain of HRH3 with the EGS linker and PK (Q9Y5N1 other isoform, or with tags, fused parts or gaps): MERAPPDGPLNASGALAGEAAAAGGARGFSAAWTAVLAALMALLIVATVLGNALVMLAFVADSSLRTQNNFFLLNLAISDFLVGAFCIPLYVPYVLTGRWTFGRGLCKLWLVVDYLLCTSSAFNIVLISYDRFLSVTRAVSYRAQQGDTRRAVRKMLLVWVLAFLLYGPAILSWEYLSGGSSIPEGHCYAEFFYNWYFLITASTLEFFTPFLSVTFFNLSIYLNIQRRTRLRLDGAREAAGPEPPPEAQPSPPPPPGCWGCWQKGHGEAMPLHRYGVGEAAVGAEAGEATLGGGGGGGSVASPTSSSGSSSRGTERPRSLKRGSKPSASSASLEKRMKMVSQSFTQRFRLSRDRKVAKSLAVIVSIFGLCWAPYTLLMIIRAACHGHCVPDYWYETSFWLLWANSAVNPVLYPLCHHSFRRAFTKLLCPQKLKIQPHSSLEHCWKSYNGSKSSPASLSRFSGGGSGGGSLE

[11] = target: SSTR1-PK2 (somatostatin receptor 1 fused to PK2) (E. coli) (UniProt P30872)
[12] = target: CRTH2-PK2 (G Protein-coupled receptor 44 fused to PK2) (E. coli) (UniProt Q9Y5Y4)
[13] = target: MC3R-PK1 (melanocortin 3 receptor fused to PK1) (E. coli) (UniProt P41968)
[14] = target: CRHR2-PK2 (corticotropin releasing hormone receptor 2 fused to PK2) (E. coli) (UniProt Q13324)
[15] = target: CCR4-PK1 (chemokine receptor 4 fused to PK1) (E. coli) (UniProt P51679)
[16] = target: OPRM1-PK (opiod receptor mu-1 fused to PK) (E. coli) (UniProt P35372)
OPRD1-PK fusion protein [17] = target: OPRD1-PK fusion protein
[18] = target: CHRM2-PK1 (cholinergic receptor, muscarinic 2, fused to PK1) (E. coli) (UniProt P08172)
[19] = target: OPRM1-PK2 (opiod receptor mu-1 fused to PK2) (E. coli) (UniProt P35372)
[20] = target: SSTR4-PK without the EGS linker (UniProt P31391)
Chain of SSTR4-PK without the EGS linker (P31391 other isoform, or with tags, fused parts or gaps): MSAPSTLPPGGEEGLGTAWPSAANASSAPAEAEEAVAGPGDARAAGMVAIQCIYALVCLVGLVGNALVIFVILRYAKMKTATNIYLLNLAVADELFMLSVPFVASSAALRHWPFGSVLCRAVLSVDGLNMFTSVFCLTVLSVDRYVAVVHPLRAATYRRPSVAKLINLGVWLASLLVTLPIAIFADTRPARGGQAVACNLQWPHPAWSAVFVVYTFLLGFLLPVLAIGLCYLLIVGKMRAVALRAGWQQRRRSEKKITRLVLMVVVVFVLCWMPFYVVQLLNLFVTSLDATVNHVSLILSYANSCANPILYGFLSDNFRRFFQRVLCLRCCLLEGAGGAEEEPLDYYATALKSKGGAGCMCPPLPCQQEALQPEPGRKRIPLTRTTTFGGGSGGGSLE

[21] = target: CCR4-PK2 (chemokine receptor 4 fused to PK2) (E. coli) (UniProt P51679)
[22] = target: CHRM2-PK2 (cholinergic receptor, muscarinic 2, fused to PK2) (E. coli) (UniProt P08172); remark: listed apart in the source
[23] = target: SSTR1-PK2 (somatostatin receptor 1 fused to PK2) (E. coli) (UniProt P30872); remark: listed apart in the source
[24] = target: CHRM2-PK2 (cholinergic receptor, muscarinic 2, fused to PK2) (E. coli) (UniProt P08172); parameters: EC50 of oxotremorine for arrestin-EA recruitment, EFC (M (unit not given)): unit not given beside the values
[25] = target: OPRM1-PK (opiod receptor mu-1 fused to PK) (E. coli) (UniProt P35372); parameters: EC50, arrestin-EA recruitment to OPRM1-PK (EFC), cells headed 'OPRM1 + PRC' (M (unit not given)): unit not given beside the values
[26] = target: OPRD1 (opiod receptor delta 1), not fused (UniProt P41143)

- LOGEC50, arrestin-EA recruitment to OPRM1-PK (EFC) (log M (unit not given)) [1]: -6.95
Substance: DADLE (peptide)

- EC50, arrestin-EA recruitment to OPRM1-PK (EFC) (M (unit not given)) [1]: 1.11e-07
Substance: DADLE (peptide; in M (unit assumed))

- EC50, arrestin-EA recruitment to OPRD1-PK (EFC) (M (unit not given)) (OPRD1-PK fusion protein [2]): 3.64e-05
- LOGEC50, arrestin-EA recruitment to OPRD1-PK (EFC) (log M (unit not given)) (OPRD1-PK fusion protein [2]): -4.44
Substance: DAMAGO, [D-Ala2,N-Me-Phe4,Gly5-ol]-enkephalin (peptide)

- EC50, arrestin-EA recruitment to OPRM1-PK (EFC), cells headed 'OPRM1 + PRC' (M (unit not given)) (PROKR2, not fused): 3.21e-08
- LOGEC50, arrestin-EA recruitment to OPRM1-PK (EFC), cells headed 'OPRM1 + PRC' (log M (unit not given)) (PROKR2, not fused): -7.49
Substance: EG-VEGF (from UniProt P58294 20-105) (ligand)

- BOTTOM of the agonist dose-response fit, EFC chemiluminescence [3]: 29200
- LOGEC50 of prostaglandin for arrestin-EA recruitment, EFC (log M (unit not given)) [3]: -6.76
- TOP of the agonist dose-response fit, EFC chemiluminescence [3]: 76000
- S:B, EFC chemiluminescence [4]: 3.2
- BOTTOM of the agonist dose-response fit, EFC chemiluminescence [5]: 1380
- EC50 of the agonist (not named) for arrestin-EA recruitment, EFC [5]: 0.732 nM
- LOGEC50 of the agonist (not named) for arrestin-EA recruitment, EFC (log M (unit not given)) [5]: -9.14
- TOP of the agonist dose-response fit, EFC chemiluminescence [5]: 3420
- BOTTOM of the agonist dose-response fit, EFC chemiluminescence [6]: 546
- EC50 of the agonist (not named) for arrestin-EA recruitment, EFC [6]: 82.2 nM
- LOGEC50 of the agonist (not named) for arrestin-EA recruitment, EFC (log M (unit not given)) [6]: -7.08
- TOP of the agonist dose-response fit, EFC chemiluminescence [6]: 1550
- S:B, EFC chemiluminescence [7]: 6.1
- S:B, EFC chemiluminescence [8]: 13
- S:B, EFC chemiluminescence [9]: 1
- BOTTOM of the agonist dose-response fit, EFC chemiluminescence [10]: 273
- EC50 of the agonist (not named) for arrestin-EA recruitment, EFC [10]: 55.2 nM
- LOGEC50 of the agonist (not named) for arrestin-EA recruitment, EFC (log M (unit not given)) [10]: -7.26
- TOP of the agonist dose-response fit, EFC chemiluminescence [10]: 935
- BOTTOM of the agonist dose-response fit, EFC chemiluminescence [11]: 4800
- EC50 of the agonist (not named) for arrestin-EA recruitment, EFC [11]: 8.15 nM
- LOGEC50 of the agonist (not named) for arrestin-EA recruitment, EFC (log M (unit not given)) [11]: -8.09
- TOP of the agonist dose-response fit, EFC chemiluminescence [11]: 10500
- S:B, EFC chemiluminescence [12]: 2.6
- S:B, EFC chemiluminescence [13]: 1
- S:B, EFC chemiluminescence [14]: 17
- S:B, EFC chemiluminescence [15]: 19
- BOTTOM of the OPRM1-agonist dose-response fit, EFC chemiluminescence, U2OS cells with OPRM1-PK [16]: 1010
- S:B with deltorphin, EFC chemiluminescence, U2OS cells with OPRM1-PK and OPRD1 [16]: 7.4
- S:B, EFC chemiluminescence [16]: 26
- TOP of the OPRM1-agonist dose-response fit, EFC chemiluminescence, U2OS cells with OPRM1-PK [16]: 10900
- BOTTOM of the OPRM1-agonist dose-response fit, EFC chemiluminescence, CHO cells with OPRD1-PK and OPRM1 (OPRD1-PK fusion protein [17]): 20.3
- S:B, EFC chemiluminescence, CHO cells with OPRD1-PK and OPRM1 (OPRD1-PK fusion protein [17]): 31.9
- TOP of the OPRM1-agonist dose-response fit, EFC chemiluminescence, CHO cells with OPRD1-PK and OPRM1 (OPRD1-PK fusion protein [17]): 201
- S:B, EFC chemiluminescence [18]: 1.6
- S:B, EFC chemiluminescence [19]: 8
- response in the EFC arrestin assay, CHO cells [20]: 1.5 fold
- S:B, EFC chemiluminescence [21]: 3
- EC50 of oxotremorine for arrestin-EA recruitment, EFC [22]: 6290 nM
- BOTTOM of the agonist dose-response fit, EFC chemiluminescence [23]: 4790
- Log EC50 of the agonist (not named) for arrestin-EA recruitment, EFC (log M (unit not given)) [23]: -8.07
- BOTTOM of the DADLE dose-response fit, EFC chemiluminescence, U2OS cells with OPRM1-PK [1]: 626
- S:B with DADLE, EFC chemiluminescence, U2OS cells with OPRM1-PK [1]: 32.7
- S:B with deltorphin, EFC chemiluminescence, U2OS cells with OPRM1-PK only [1]: 2.5
- TOP of the DADLE dose-response fit, EFC chemiluminescence, U2OS cells with OPRM1-PK [1]: 17100
- BOTTOM of the agonist dose-response fit, EFC chemiluminescence [24]: 336
- EC50 of oxotremorine for arrestin-EA recruitment, EFC (M (unit not given)) [24]: 6.29e-05
- LOGEC50 of oxotremorine for arrestin-EA recruitment, EFC (log M (unit not given)) [24]: -5.2
- TOP of the agonist dose-response fit, EFC chemiluminescence [24]: 2040
- BOTTOM of the EG-VEGF dose-response fit, EFC chemiluminescence, cells headed 'OPRM1 + PRC' [25]: 25.8
- TOP of the EG-VEGF dose-response fit, EFC chemiluminescence, cells headed 'OPRM1 + PRC' [25]: 57.3
- BOTTOM of the OPRM1-agonist dose-response fit, EFC chemiluminescence, CHO cells with OPRD1-PK (OPRD1-PK fusion protein [2]): 520
- TOP of the OPRM1-agonist dose-response fit, EFC chemiluminescence, CHO cells with OPRD1-PK (OPRD1-PK fusion protein [2]): 2810
Substance: arrestin-EA fusion protein (beta arrestin fused at its C terminus to the EA fragment of β-galactosidase) (from UniProt P49407 1-418; P00722 48-1024)

- EC50 of prostaglandin for arrestin-EA recruitment, EFC (M (unit not given)) [3]: 1.74e-07
Substance: arrestin-EA fusion protein (beta arrestin fused at its C terminus to the EA fragment of β-galactosidase) (from UniProt P49407 1-418; P00722 48-1024) (other; in M (unit assumed))

- EC50, arrestin-EA recruitment to co-expressed OPRM1-PK (EFC, transactivation) [26]: 8.38 nM
- LOGEC50, arrestin-EA recruitment to co-expressed OPRM1-PK (EFC, transactivation) (log M (unit not given)) [26]: -8.08
- EC50, arrestin-EA recruitment to OPRM1-PK (EFC) (M (unit not given)) [1]: 0.0007
- LOGEC50, arrestin-EA recruitment to OPRM1-PK (EFC) (log M (unit not given)) [1]: -3.12
Substance: deltorphin (peptide)
